Reference: article PMC6943233, “Disorder‐to‐order transition in PE–PPE proteins of Mycobacterium tuberculosis augments the pro‐pathogen immune response” (FEBS Open Bio, 2019)

Biological target: T1, PPE68 (Mycobacterium tuberculosis, UniProt P9WHW9 1-368)
T1 construct: also called recombinant PPE68
T1 sequence: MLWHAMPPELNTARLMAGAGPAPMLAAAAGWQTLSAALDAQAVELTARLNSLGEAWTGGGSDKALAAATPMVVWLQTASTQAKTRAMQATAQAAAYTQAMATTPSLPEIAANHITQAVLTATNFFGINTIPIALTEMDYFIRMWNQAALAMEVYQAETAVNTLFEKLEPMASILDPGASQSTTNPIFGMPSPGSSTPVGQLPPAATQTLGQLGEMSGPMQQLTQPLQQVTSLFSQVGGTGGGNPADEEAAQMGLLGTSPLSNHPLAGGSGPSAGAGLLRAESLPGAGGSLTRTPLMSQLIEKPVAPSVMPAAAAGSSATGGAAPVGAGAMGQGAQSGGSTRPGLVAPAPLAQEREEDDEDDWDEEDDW
Test: other fluorescence titration; intrinsic fluorescence of the PPE protein (10 μg) with the tryptophan-free PE protein added (10 and 30 μg); excitation 280 nm, emission 300-340 nm, 25 ± 0.1 °C
Conditions: both partners purified

B1: PE35 (natural protein)
chain: MEKMSHDPIAADIGTQVSDNALHGVTAGSTALTSVTGLVPAGADEVSAQAATAFTSEGIQLLASNASAQDQLHRAGEAVQDVARTYSQIDDGAAGVFAE
notes: also called recombinant PE35
binding result: binds
